Patent publication US20210017289A1 (AbbVie / Abbott, published 2021)
Values joined by “and” are separate entries in the source; they are usually repeats but may differ in a detail not shown here. Equal values may be shown once. Read-outs that look alike come from different tables or passages of the source.

T1: human OX40 expressed on cells (human, UniProt P43489 29-277)
T1 sequence: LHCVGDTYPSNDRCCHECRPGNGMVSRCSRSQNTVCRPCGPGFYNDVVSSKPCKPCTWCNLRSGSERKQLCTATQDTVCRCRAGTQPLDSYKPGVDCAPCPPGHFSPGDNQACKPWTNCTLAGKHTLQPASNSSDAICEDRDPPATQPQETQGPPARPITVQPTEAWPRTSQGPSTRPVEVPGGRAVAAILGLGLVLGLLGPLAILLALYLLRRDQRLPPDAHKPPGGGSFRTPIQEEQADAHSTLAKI

T2: recombinant soluble human OX40 ECD (residues 1-216) (human, UniProt P43489 29-216)
T2 construct: Purchased from Creative Biomart and further purified by gel filtration; also called recombinant extracellular domain of human OX40
T2 sequence: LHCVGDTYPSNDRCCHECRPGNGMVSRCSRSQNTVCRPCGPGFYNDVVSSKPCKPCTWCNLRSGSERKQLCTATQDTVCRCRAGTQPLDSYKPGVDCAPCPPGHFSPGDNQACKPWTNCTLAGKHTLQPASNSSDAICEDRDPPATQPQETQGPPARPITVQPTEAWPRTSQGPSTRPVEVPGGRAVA


Key:
[1] = target: T1, human OX40 expressed on cells; test: cell-based or functional assay
[2] = target: T1, human OX40 expressed on cells; test: competition by flow cytometry on Jurkat-NF-κB-huOX40 cells; competitor: ALEXA FLUOR 647-labeled Hu3738 at 2 µg/mL
Experimental: Analysis was performed by flow cytometry.

[3] = target: T1, human OX40 expressed on cells; test: cell-based or functional assay; remark: listed apart in the source
[4] = target: T1, human OX40 expressed on cells; test: cell-based or functional assay; remark: listed apart in the source
[5] = target: T2, recombinant soluble human OX40 ECD …; test: SPR (Biacore T200, 25 °C), antibody captured by anti-Fc, OX40 ECD as analyte
Experimental: The binding kinetics of an anti-OX40 antibody to recombinant soluble OX40 ECD (extracellular domain) were determined by surface plasmon resonance-based measurements made on a Biacore T200 instrument (GE Healthcare) at 25° C. using an anti-Fc capture assay approach. Recombinant extracellular domains (ECDs) of human OX40 (residues 1-216) and rhesus macaque OX40 (residues 28-214) were purchased (Creative Biomart) and further purified by gel filtration using Superdex200 (GE Healthcare) in 10 mM 4-(2-hydroxyethyl)-1-piperazineethanesulfonic acid (HEPES), pH 7.4, 150 mM NaCl, 3 mM ethylenediaminetetraacetic acid (EDTA). Rhesus macaque (Macaca mulatta) OX40 is identical to cynomolgus monkey (Macaca fascicularis) OX40 (SEQ ID NO:2) at the amino acid level. Chip preparation and binding kinetic measurements were made in the assay buffer HBS-EP+(10 mM HEPES, pH 7.4, 150 mM NaCl, 3 mM EDTA, 0.05% Tween 20). For anti-Fc capture chip preparation, approximately 2000 Resonance Units (RU) of goat anti-human IgG Fc polyclonal antibody (Thermo Fisher Scientific Inc.), diluted to 25 μg/mL in 10 mM sodium acetate (pH 4.5), was directly immobilized across a CMS biosensor chip using a standard amine coupling kit according to manufacturer's instructions and procedures. Unreacted moieties on the biosensor surface were blocked with ethanolamine. For binding kinetics measurements each assay cycle consisted of the following steps: 1) capture of test anti-OX40 antibody on test surface only; 2) analyte injection (OX40 ECD or buffer only) over both reference and test surface, 240 μL at 80 μL/min, after which the dissociation was monitored for 900 seconds at 80 μL/min; 3) regeneration of capture surface by 10 mM Glycine-HCl, pH 1.5 injections over both reference and test surface. During the assay, all measurements were referenced against the capture surface alone (i.e., with no captured test antibody) and buffer-only injections were used for double referencing. OX40 injections ranged in concentration from 900 nM or 300 nM to 11.11 nM in a randomized 9- or 3-fold dilution series, respectively. Data were processed and fitted globally to a 1:1 binding model using Biacore T200 Evaluation software to determine the binding kinetic rate constants, kₐ (M⁻¹s⁻¹) and kd (s¹), and the equilibrium dissociation constant KD (M).

[6] = target: T1, human OX40 expressed on cells; test: flow cytometry on Jurkat NF-κB reporter cells expressing human OX40
Experimental: A Jurkat NF-κB reporter cell line expressing human OX40 protein was cultured in DMEM containing 10% FBS and penicillin/streptomycin (pen/strep). For the binding assay, each cell line was resuspended at 5 million cells per mL. 50 μL (250,000 cells)/well were transferred to each well of a 500 μL polypropylene 96-well plate (Nunc). A 2× stock of test anti-OX40 antibody or isotype control mAb was prepared in a separate dilution plate at 666, 333, 111, 37.03, 12.34, 4.11, 0.457, 0.152, 0.0508, 0.0169, 0.00564 nM in culture media. Each antibody (50 μL/well) was transferred into respective wells of the assay plate. Cells were incubated with the test anti-OX40 antibody or isotype control antibodies for 30 minutes at 4° C. and washed twice with 250 μL/well of PBS by centrifuging at 800 rpm for 3 minutes. Bound antibody was detected with Cy5-Donkey anti-human IgG (H+L) (Jackson ImmunoResearch) diluted to 2 μg/mL (50 μL/well) in PBS for 30 minutes at 4° C. Cells were washed once with 250 μL/well of PBS, resuspended in PBS containing 1% Formaldehyde and analyzed on a dual laser FACSCalibur (Becton Dickinson).

[7] = target: T1, human OX40 expressed on cells; test: flow cytometry competition on human OX40-expressing Jurkat cells; OX40L titrated against 0.2 µg/mL Hu3738 (competitor)

Row | Molecule | EC50 With Cross-linker (nM), NF-κB signaling [4] [nM] | EC50 Without Cross-linker (nM), NF-κB signaling [4] [µg/mL] | Kd [5] [nM] | koff [5] [s⁻¹] | other results
1 | Isotype control antibody | – | – | – | – | EC50 With Cross-linker (nM), NF-κB signaling [1]: > 100 µg/mL; EC50 Without Cross-linker (nM), NF-κB signaling [1]: > 100 µg/mL
2 | 1A7 (antibody, human IgG1, V domains shown, 2015/0307617; also called literature anti-OX40 antibody 1A7) VH: EVQLQQSGPELVKPGASVKISCKASGYTFTDSYMSWVKQSHGKTLEWIGDMYPDNGDSSYNQKFREKVTLTVDKSSTTAYMEFRSLTSEDSAVYYCVLAPRWYFSVWGTGTTVTVSS VL: DIQMTQTTSSLSASLGDRVTISCRASQDISNYLNWYQQKPDGTVKLLIYYTSRLRSGVPSRFSGSGSGKDYFLTISNLEQEDVAAYFCQQGHTLPPTFGGGTKLEIK | – | – | – | – | IC50 (read off the curve) [2]: ~0.6 µg/mL; EC50 With Cross-linker (nM), NF-κB signaling [3]: 0.066 nM; EC50 Without Cross-linker (nM), NF-κB signaling [3]: > 100 µg/mL
3 | 106-222 (antibody, human IgG1, V domains shown, 2013/0280275) VH: QVQLVQSGSELKKPGASVKVSCKASGYTFTDYSMHWVRQAPGQGLKWMGWINTETGEPTYADDFKGRFVFSLDTSVSTAYLQISSLKAEDTAVYYCANPYYDYVSYYAMDYWGQGTTVTVSS VL: DIQMTQSPSSLSASVGDRVTITCKASQDVSTAVAWYQQKPGKAPKLLIYSASYLYTGVPSRFSGSGSGTDFTFTISSLQPEDIATYYCQQHYSTPRTFGQGTKLEIK | 0.63 | > 100 | – | – | IC50 (read off the curve) [2]: ~1 µg/mL
4 | 119-122 (antibody, human IgG1, V domains shown) VH: EVQLVESGGGLVQPGGSLRLSCAASEYEFPSHDMSWVRQAPGKGLELVAAINSDGGSTYYPDTMERRFTISRDNAKNSLYLQMNSLRAEDTAVYYCARHYDDYYAWFAYWGQGTMVTVSS VL: EIVLTQSPATLSLSPGERATLSCRASKSVSTSGYSYMHWYQQKPGQAPRLLIYLASNLESGVPARFSGSGSGTDFTLTISSLEPEDFAVYYCQHSRELPLTFGGGTKVEIK | 0.34 | > 100 | – | – | –
5 | 18D8 (antibody, human IgG1, V domains shown, also called literature anti-OX40 antibody 18D8) VH: EVQLVESGGGLVQPGRLSRLSCAASGFTFDDYAMHWVRQAPGKGLEWVSGISWNSGSIGYADSVKGRFTISRENAKNSLYLQMNSLRAEDTALYYCAKDQSTADYYFYYGMDVWGQGTTVTVSS VL: EIVVTQSPATLSLSPGERATLSCRASQSVSSYLAWYQQKPGQAPRLLIYDASNRATGIPARFSGSGSGTDFTLTISSLEPEDFAVYYCQQRSNWPTFGQGTKVEIK | 0.5 | > 100 | 9.1 | 0.11 | EC50 [6]: 0.258 µg/mL
6 | soluble human OX40 ligand (OX40L) (ligand, also called CD252; TNFSF4) QVSHRYPRIQSIKVQFTEYKKEKGFILTSQKEDEIMKVQNNSVIINCDGFYLISLKGYFSQEVNISLHYQKDEEPLFQLKKVRSVNSLMVASLTYKDKVYLNVTTDNTSLDDFHVNGGELILIHQNPGEFCVL | – | – | – | – | IC50 [7]: 0.067 nM and 0.01 µg/mL
7 | Hu3739 (antibody, V domains shown, Humanized antibody; also called Hu3739 VH.1b / Hu3739 VL.1b) VH: EVQLVQSGAEVKKPGSSVKVSCKASGFNIKDTYMHWVRQAPGQGLEWIGRIDPANGNTKYDPKFQGRATITADTSTNTAYMELSSLRSEDTAVYYCARGGPAWFVYWGQGTLVTVSS VL: DIQMTQSPSSLSASVGDRVTITCRASQDISNYLNWYQQKPGKAPKLLIYYTSRLRSGLPSRFSGSGSGTDYTLTISSLQPEDFATYYCQQGNTLPWTFGGGTKVEIKR | – | – | 360 | 0.016 | –
8 | Hu3741 (antibody, V domains shown, Humanized antibody; also called Hu3741 VH.2b / Hu3741 VL.1c) VH: EVQLVESGGGLVQPGGSLRLSCAVSGFSLTSYGVHWVRQAPGKGLEWLGVIWSGGSTDYNAAFISRLTISKDNSKSTVYLQMNSLRAEDTAVYYCAREEFDYWGQGTTVTVSS VL: DIQMTQSPSSLSASVGDRVTITCRASQDISNYLNWFQQKPGKAPKLLIYYTSRLHSGVPSRFSGSGSGTDYTLTISSLQPEDFATYYCQQGYTLPPTFGGGTKVEIKR | – | – | 3000 | 0.31 | –
